Experimental data published in patent US20250121076A1, “POLYPEPTIDE DRUG CONJUGATE HAVING NOVEL STRUCTURE AND APPLICATION THEREOF” (MEDSHINE DISCOVERY INC., priority 2021, published 2025).
Counter-ions that a name gives are not always drawn. Starred links: 1 amine or outer side, 2 acyl side, 3 side chain; linkers in the order of their positions; H or OH if unused. Positions of bridges follow the written chain, without caps; N, C: chain ends. Non-standard residues stand in square brackets, D forms with d. Residues, ends and D or L forms follow the SMILES beside them. Chains are numbered I, II in the order given. *: point of attachment. TATA = O=C(CC[*:1])N1CN(C(=O)CC[*:2])CN(C(=O)CC[*:3])C1; Dolaproine = CO[C@@H]([C@@H]1CCCN1)[C@@H](C)C(=O)O; Dil = CC[C@H](C)[C@H](NC)[C@@H](CC(=O)O)OC; X2 = O=C(CCCC(=O)[*:2])NCCC(=O)[*:1]; PABC = O=C(OCc1ccc(N[*:1])cc1)[*:2]; X1 = C[C@@H](N*)[C@@H](O)c1ccccc1; Hyp = O=C(O)[C@@H]1C[C@@H](O)CN1; hArg = N=C(N)NCCCC[C@H](N)C(=O)O; Cit = NC(=O)NCCC[C@H](N)C(=O)O; Pen = CC(C)(S)[C@H](N)C(=O)O; NMeV = CN[C@H](C(=O)O)C(C)C; Sar = CNCC(=O)O

Tests used:
[1] = Stability in plasma; type: in vitro ADME, SD rats; settings: SD rat plasma, 2 μM, 37° C., up to 240 min
Description: (§1) To test the stability of the compounds of the present invention in plasma from rats, Cynomolgus macaques, and humans.
(§2) The corresponding incubation plates, including T0, T10, T30, T60, T120, and T240 incubation plates, were added with a 2 μL working solution of the compound to be tested (100 μM). Three parallel wells were prepared for each sample. Then, 98 μL of blank plasma from SD rats, Cynomolgus macaques, and humans was added to the corresponding incubation plates to which the working solution had been added. All samples were incubated in a 37° C. water bath. […] At the end of each incubation time point, the corresponding incubation plate was removed, added with stop buffer, precipitated, and centrifuged for 20 minutes. Then, 150 μL of the supernatant was analyzed by the LC-MS/MS method. The concentration of the compound to be tested in the sample was semi-quantitatively determined by the liquid chromatography-tandem mass spectrometry (LC-MS/MS) method.

[2] = Stability incubated in human plasma for 72 hours; type: in vitro ADME, Humans
Description: as §2
The experimental results obtained using the above method but extending the incubation time of the compound to be tested with human plasma to 72 hours are shown in Table 22.

[3] = Stability in plasma; type: in vitro ADME, Cynomolgus macaques; settings: Cynomolgus macaque plasma, 2 μM, 37° C., up to 240 min
Description: as §1, §2

[4] = target: T1, Human EphA2 (Homo sapiens, UniProt P29317); assay: Binding capacity test to EphA2 protein (SPR, Biacore 8K)
T1 construct: purchased Sino Biological 13926-H08HD
T1 sequence (P29317 24-534 limits assumed): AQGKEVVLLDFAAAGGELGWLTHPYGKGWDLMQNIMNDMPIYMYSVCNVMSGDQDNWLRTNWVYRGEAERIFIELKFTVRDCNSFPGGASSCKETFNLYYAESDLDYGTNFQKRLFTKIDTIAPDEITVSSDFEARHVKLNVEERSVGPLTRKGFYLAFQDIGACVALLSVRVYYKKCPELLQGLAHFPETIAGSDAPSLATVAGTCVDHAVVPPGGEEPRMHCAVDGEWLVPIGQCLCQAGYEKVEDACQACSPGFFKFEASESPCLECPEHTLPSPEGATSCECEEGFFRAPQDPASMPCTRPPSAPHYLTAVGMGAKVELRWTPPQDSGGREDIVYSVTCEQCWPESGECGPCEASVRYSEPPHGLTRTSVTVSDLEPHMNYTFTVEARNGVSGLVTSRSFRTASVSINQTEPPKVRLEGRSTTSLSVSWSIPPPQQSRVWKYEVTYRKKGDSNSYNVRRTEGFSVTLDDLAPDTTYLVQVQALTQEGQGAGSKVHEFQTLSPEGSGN
Description: To detect the affinity of the compound to be tested to the target protein EphA2 using the SPR method.
• Biacore 8K (GE Healthcare). • 96-well Plate (Cat #650101, greiner bio-one) • CM5 chip (Cat #BR-1005-30, GE Healthcare) • Amine Coupling Kit (Cat #BR-1000-50, GE Healthcare) EDC NHS 1 M ethanolamine. • 10 mM sodium acetate pH 4.5 (Cat #BR-1003-50, GE Healthcare) • DMSO (Cat #D4540, Sigma) • P20 (Cat #BR-1000-54, GE Healthcare). • PBS (Cat #BR-1006-72, GE Healthcare). • EphA2 (Cat #13926-H08HD, Sino Biological)
In this experiment, the amino coupling method was used. The target protein EphA2 was directly immobilized on the CM5 chip using Biacore 8K. The compound to be tested as an analyte was then diluted to a required concentration gradient with a buffer (10 mM PBS, pH 7.4, 137 mM NaCl, 2.7 mM KCl, 5% DMSO, and 0.05% P20) for multi-cycle kinetic detection, in which each cycle is formed by 180 seconds of sample injection and 180 seconds of dissociation, and then the next cycle was performed, to obtain kinetic analysis data on the affinity of the target protein EphA2 to the compound to be tested. The final data were subjected to Kinetics fitting analysis based on a 1:1 model using Biacore Insight Evaluation Software (V 2.0.15.12933).
1) Preparation of the buffer: 10 mM PBS, pH 7.4, 137 mM NaCl, 2.7 mM KCl, 5% DMSO, and 0.05% P20.
2) Activation of the CM5 chip: The CM5 chip was activated with 400 mM EDC and 100 mM NHS at a flow rate of 10 μL/min for 420 seconds.
3) Coupling of the target protein: The target protein was diluted to 10 μg/mL with 10 mM sodium acetate (pH 4.5) and coupled at a flow rate of 10 μL/min for 284 s. The 1 #, 2 #, and 3 #channels on the chip were used in the experiment, and the coupling results were 1639.9RU, 1747.8RU, and 1702.2RU, respectively.
4) Blocking of the CM5 chip: The CM5 chip was blocked with 1 M ethanolamine at a flow rate of 10 μL/min for 420 seconds.
5) Analyte concentration: The compound to be tested was diluted with the buffer. The compound to be tested was diluted from 100 nM to 0.78 nM in a 2-fold gradient.
6) Sample injection analysis: Each concentration of the working solution of the compound to be tested corresponded to one cycle, with a flow rate of 30 μL/min for binding for 180 seconds and dissociating for 180 seconds. The last cycle was a 5% DMSO solvent correction cycle. 7) All results were subjected to kinetics fitting analysis based on a 1:1 model.
The experimental data of five effective concentrations of the compounds of the present invention were selected for Kinetics fitting analysis based on a 1:1 model using Biacore Insight Evaluation Software (V 2.0.15.12933).

[5] = Pharmacokinetic analysis in Cynomolgus macaque plasma; type: in vivo, Cynomolgus macaques; settings: cynomolgus monkey, in vivo, Cynomolgus macaques, single IV 1 mg/kg, plasma
Description: To test the pharmacokinetics of the compounds of the present invention in Cynomolgus macaques.
The pharmacokinetic characteristics of the compound after intravenous injection and oral administration were tested in Cynomolgus macaques according to a standard protocol. The compound of the present invention was formulated into a clear solution using 50 mM acetate buffer (pH=5) in 10% sucrose as a vehicle. Two Cynomolgus macaques were given a single intravenous injection of 1 mg/kg of the compound to be tested. Whole blood was collected at time points of 0.083, 0.25, 0.5, 1, 2, 4, 8, and 24 hours after administration to get plasma. The concentration of the compound to be tested and the concentration of its potential metabolite MMAE were analyzed by the LC-MS/MS method, and the pharmacokinetic parameters were calculated by Phoenix WinNonlin software.

## CC[C@H](C)[C@@H]([C@@H](CC(=O)N1CCC[C@H]1[C@H](OC)[C@@H](C)C(=O)N[C@H](C)[C@@H](O)c1ccccc1)OC)N(C)C(=O)[C@@H](NC(=O)[C@H](C(C)C)N(C)C(=O)OCc1ccc(NC(=O)[C@H](CCCNC(N)=O)NC(=O)[C@@H](NC(=O)CCCC(=O)NCCC(=O)N(C)CC(=O)N(C)CC(=O)N(C)CC(=O)N(C)CC(=O)N(C)CC(=O)N(C)CC(=O)N(C)CC(=O)N(C)CC(=O)N(C)CC(=O)N(C)CC(=O)N[C@H]2CCCCNC(=O)C[C@@H](C(=O)N[C@H]3CSCCC(=O)N4CN5CN(C4)C(=O)CCSC(C)(C)[C@@H](C(N)=O)NC(=O)[C@H](CCCCNC(=N)N)NC(=O)[C@H](Cc4c[nH]c6ccccc46)NC(=O)[C@@H](CC(=O)O)NC(=O)[C@@H]4CCCN4C(=O)[C@H](Cc4c[nH]cn4)NC(=O)[C@H](CC(C)C)NC(=O)[C@H](CSCCC5=O)NC(=O)[C@H](CC(C)C)NC(=O)[C@@H]4CCCN4C(=O)[C@H](CC(N)=O)NC(=O)[C@H](C(C)C)NC(=O)[C@H](CC(C)C)NC(=O)[C@@H]4C[C@@H](O)CN4C3=O)NC(=O)[C@H](CCCCNC(=N)N)NC2=O)C(C)C)cc1)C(C)C [Acetate salt of PDC_8] (I: [Sar][Sar][Sar][Sar][Sar][Sar][Sar][Sar][Sar][Sar]K[hArg]DC[Hyp]LVNPLCLHP[dD]W[hArg][Pen]-NH2 / II: V[Cit][PABC][NMeV]V[Dil][Dolaproine]-X1; lactam I:11-I:13; linker I:14-I:21-I:28 via TATA; linker I:N-II:N via X2)
[1]
  half-life: > 9.63 h
[2]; test time point 0
  MMAE generation %: 0.1%
  PDC_8 remaining %: 100.0%
[2]; test time point 0.5
  MMAE generation %: 0.2%
[2]; test time point 0.5, read-out: PDC_8 remaining %
  remaining at 0.5 h, 2 µM: 96.3%
[2]; test time point 1
  MMAE generation %: 0.5%
[2]; test time point 1, read-out: PDC_8 remaining %
  remaining at 1 h, 2 µM: 103%
[2]; test time point 2
  MMAE generation %: 0.5%
[2]; test time point 2, read-out: PDC_8 remaining %
  remaining at 2 h, 2 µM: 86.6%
[2]; test time point 4
  MMAE generation %: 0.6%
[2]; test time point 4, read-out: PDC_8 remaining %
  remaining at 4 h, 2 µM: 101%
[2]; test time point 24
  MMAE generation %: 0.6%
[2]; test time point 24, read-out: PDC_8 remaining %
  remaining at 24 h, 2 µM: 89.9%
[2]; test time point 48
  MMAE generation %: 0.0%
[2]; test time point 48, read-out: PDC_8 remaining %
  remaining at 48 h, 2 µM: 96%
[2]; test time point 72
  MMAE generation %: 3.2%
[2]; test time point 72, read-out: PDC_8 remaining %
  remaining at 72 h, 2 µM: 78%
[3]
  half-life: > 9.63 h
[4]
  Kd: 3.46 nM
[5]
  AUC(0-t): 0.651 µM·h
  C0: 2470 nM
  clearance: 5.72 mL/min/kg
  half-life: 0.31 h
[5]; read-out: Vdss
  Vd: 0.12 L/kg
